The text below walks through data of publication PMC3842936.

Test [1] addresses native AdcAII of Streptococcus pneumoniae D39 (Streptococcus pneumoniae D39 (endogenous in D39 membranes)). Description: co-IP; S. pneumoniae D39 membranes solubilised in 2% Triton X-100, not cross-linked (IP); polyclonal antibody against AdcAII and protein A sepharose; 50 mM HEPES, 150 mM NaCl, pH 8, washes with 2% Triton X-100; immunoblot, signals quantified with Image J. For orientation: A western blot detects proteins with antibodies after separation by electrophoresis.

Test [2] has the same target. Description: cross-linking + co-IP; S. pneumoniae D39 membrane preparations incubated with the thiol-cleavable cross-linker DTSSP (0.8 mM, 1 h) before the immuno-precipitation (x-IP); polyclonal antibody against AdcAII and protein A sepharose; immunoblot, signals quantified with Image J.

In the case of “native PhtD (polyhistidine triad protein D) of Streptococcus pneumoniae D39 (natural protein)”, the percentage of membrane-bound protein immuno-precipitated by AdcAII polyclonal antibodies in test [1] was found to be 1.7%; in test [2], 12%.
